Reference: patent publication US20100260668A1 (published 2010)

Tests used:
[1] = target: T1, VEGF 1-165 aa (UniProt P15692 27-191); test: direct bind ELISA (N-term VD);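 also: ELISA screen of antibodies for binding to plate-immobilized target antigen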
T1 construct: Bought antigen coated on the ELISA plate
Protocol: Enzyme Linked Immunosorbent Assays to screen for antibodies that bind a desired target antigen were performed as follows. […] Plates were washed four times with PBS containing 0.02% Tween 20. Plates were blocked by the addition of 300 μL/well blocking solution (non-fat dry milk powder, various retail suppliers, diluted to 2% in PBS) for ½ hour at room temperature. Plates were washed four times after blocking with PBS containing 0.02% Tween 20.
Alternatively, one hundred microliters per well of 10 μg/ml of Histidine (His) tagged desired target antigen (R&D Systems, Minneapolis, Minn.) was added to ELISA plates coated with monoclonal mouse anti-polyHistidine antibody as described above and incubated for 1 hour at room temperature. Wells were washed four times with PBS containing 0.02% Tween 20.
Plates were washed 4 times with PBS containing 0.02% Tween 20.

[2] = target: T2, HGF-His tag (UniProt P14210 32-728); test: direct bind ELISA (C-term VD)
T2 construct: Bought antigen coated on the ELISA plate; not shown: His tag
T2 sequence (P14210 32-728 limits assumed): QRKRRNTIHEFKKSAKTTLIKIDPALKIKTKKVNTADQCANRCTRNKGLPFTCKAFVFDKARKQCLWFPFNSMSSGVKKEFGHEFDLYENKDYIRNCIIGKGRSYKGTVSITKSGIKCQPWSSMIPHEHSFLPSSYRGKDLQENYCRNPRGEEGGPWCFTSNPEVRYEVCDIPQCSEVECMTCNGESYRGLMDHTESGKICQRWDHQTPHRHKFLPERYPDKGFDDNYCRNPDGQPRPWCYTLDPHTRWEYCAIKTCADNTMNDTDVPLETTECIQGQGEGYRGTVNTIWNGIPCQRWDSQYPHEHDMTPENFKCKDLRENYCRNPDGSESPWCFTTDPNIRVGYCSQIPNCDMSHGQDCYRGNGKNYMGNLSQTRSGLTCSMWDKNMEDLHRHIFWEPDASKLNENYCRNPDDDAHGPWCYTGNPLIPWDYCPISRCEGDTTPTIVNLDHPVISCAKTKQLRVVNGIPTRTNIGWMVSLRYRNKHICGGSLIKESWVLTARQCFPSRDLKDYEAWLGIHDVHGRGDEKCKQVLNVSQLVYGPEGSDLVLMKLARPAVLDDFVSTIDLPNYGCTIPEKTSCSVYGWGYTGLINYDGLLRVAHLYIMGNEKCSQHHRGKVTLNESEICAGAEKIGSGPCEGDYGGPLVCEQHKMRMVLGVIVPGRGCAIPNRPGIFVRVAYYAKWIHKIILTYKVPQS

T1 sequence (P15692 other isoform, or with tags, fused parts or gaps limits assumed): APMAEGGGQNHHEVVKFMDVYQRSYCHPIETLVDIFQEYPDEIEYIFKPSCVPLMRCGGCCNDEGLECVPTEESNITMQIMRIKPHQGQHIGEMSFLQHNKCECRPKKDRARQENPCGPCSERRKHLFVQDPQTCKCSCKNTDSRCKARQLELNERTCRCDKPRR

Row | Binder | EC50 [1] [nM] | EC50 [2] [nM]
1 | DVD646 (bispecific antibody, human IgG1, kappa, DVD-Ig; N-term VD AB071 (VEGF), C-term VD AB012 (HGF); HC linker long, LC linker long; vectors V1/V2) heavy: not shown light: DIQMTQSPSSLSASVGDRVTITCRASQVIRRSLAWYQQKPGKAPKLLIYAASNLASGVPSRFSGSGSGTDFTLTISSLQPEDFATYYCQQSNTSPLTFGQGTKVEIKRTVAAPSVFIFPPDIQMTQSPSSVSASVGDRVTITCRASQGISSWLAWYQQKPGKAPNLLIYEASSLQSGVPSRFGGSGSGTDFTLTISSLQPEDFATYYCQQANGFPWTFGQGTKVEIKRTVAAPSVFIFPPSDEQLKSGTASVVCLLNNFYPREAKVQWKVDNALQSGNSQESVTEQDSKDSTYSLSSTLTLSKADYEKHKVYACEVTHQGLSSPVTKSFNRGEC | 30.7 | 0.49
2 | DVD658 (bispecific antibody, human IgG1, kappa, DVD-Ig; N-term VD AB071 (VEGF), C-term VD AB012 (HGF); HC linker short, LC linker long; vectors V1/V2) heavy: not shown light: DIQMTQSPSSLSASVGDRVTITCRASQVIRRSLAWYQQKPGKAPKLLIYAASNLASGVPSRFSGSGSGTDFTLTISSLQPEDFATYYCQQSNTSPLTFGQGTKVEIKRTVAAPSVFIFPPDIQMTQSPSSVSASVGDRVTITCRASQGISSWLAWYQQKPGKAPNLLIYEASSLQSGVPSRFGGSGSGTDFTLTISSLQPEDFATYYCQQANGFPWTFGQGTKVEIKRTVAAPSVFIFPPSDEQLKSGTASVVCLLNNFYPREAKVQWKVDNALQSGNSQESVTEQDSKDSTYSLSSTLTLSKADYEKHKVYACEVTHQGLSSPVTKSFNRGEC | 28.7 | 0.94
3 | DVD652 (bispecific antibody, human IgG1, kappa, DVD-Ig; N-term VD AB071 (VEGF), C-term VD AB012 (HGF); HC linker long, LC linker short; vectors V1/V2) heavy: not shown light: DIQMTQSPSSLSASVGDRVTITCRASQVIRRSLAWYQQKPGKAPKLLIYAASNLASGVPSRFSGSGSGTDFTLTISSLQPEDFATYYCQQSNTSPLTFGQGTKVEIKRTVAAPDIQMTQSPSSVSASVGDRVTITCRASQGISSWLAWYQQKPGKAPNLLIYEASSLQSGVPSRFGGSGSGTDFTLTISSLQPEDFATYYCQQANGFPWTFGQGTKVEIKRTVAAPSVFIFPPSDEQLKSGTASVVCLLNNFYPREAKVQWKVDNALQSGNSQESVTEQDSKDSTYSLSSTLTLSKADYEKHKVYACEVTHQGLSSPVTKSFNRGEC | 13.8 | 4.71
4 | DVD666 (bispecific antibody, human IgG1, kappa, DVD-Ig; HC linker long, LC linker long; vectors V1/V2) heavy: not shown light: DIQMTQSPSSLSASVGDRVTITCSASQDISNYLNWYQQKPGKAPKVLIYFTSSLHSGVPSRFSGSGSGTDFTLTISSLQPEDFATYYCQQYSTVPWTFGQGTKVEIKRTVAAPSVFIFPPDIQMTQSPSSLSASVGDRVTITCKASENVVSYVSWYQQKPGKAPKLLIYGASNRNTGVPSRFSGSGSGTDFTLTISSLQPEDFATYYCGQSYNYPYTFGQGTKLEIKRTVAAPSVFIFPPSDEQLKSGTASVVCLLNNFYPREAKVQWKVDNALQSGNSQESVTEQDSKDSTYSLSSTLTLSKADYEKHKVYACEVTHQGLSSPVTKSFNRGEC | 134 | 14.7
5 | DVD664 (bispecific antibody, human IgG1, kappa, DVD-Ig; N-term VD AB071 (VEGF), C-term VD AB079 (HGF); HC linker short, LC linker short; vectors V1/V2) heavy: not shown light: DIQMTQSPSSLSASVGDRVTITCRASQVIRRSLAWYQQKPGKAPKLLIYAASNLASGVPSRFSGSGSGTDFTLTISSLQPEDFATYYCQQSNTSPLTFGQGTKVEIKRTVAAPDIQMTQSPSSLSASVGDRVTITCKASENVVSYVSWYQQKPGKAPKLLIYGASNRNTGVPSRFSGSGSGTDFTLTISSLQPEDFATYYCGQSYNYPYTFGQGTKLEIKRTVAAPSVFIFPPSDEQLKSGTASVVCLLNNFYPREAKVQWKVDNALQSGNSQESVTEQDSKDSTYSLSSTLTLSKADYEKHKVYACEVTHQGLSSPVTKSFNRGEC | 40.9 | 80.9
6 | DVD670 (bispecific antibody, human IgG1, kappa, DVD-Ig; N-term VD AB071 (VEGF), C-term VD AB079 (HGF); HC linker long, LC linker long; vectors V1/V2) heavy: not shown light: DIQMTQSPSSLSASVGDRVTITCRASQVIRRSLAWYQQKPGKAPKLLIYAASNLASGVPSRFSGSGSGTDFTLTISSLQPEDFATYYCQQSNTSPLTFGQGTKVEIKRTVAAPSVFIFPPDIQMTQSPSSLSASVGDRVTITCKASENVVSYVSWYQQKPGKAPKLLIYGASNRNTGVPSRFSGSGSGTDFTLTISSLQPEDFATYYCGQSYNYPYTFGQGTKLEIKRTVAAPSVFIFPPSDEQLKSGTASVVCLLNNFYPREAKVQWKVDNALQSGNSQESVTEQDSKDSTYSLSSTLTLSKADYEKHKVYACEVTHQGLSSPVTKSFNRGEC | 48.3 | 3.1
7 | DVD668 (bispecific antibody, human IgG1, kappa, DVD-Ig; HC linker long, LC linker long; vectors V1/V2) heavy: not shown light: DIQMTQSPSSLSASVGDRVTITCRASQDVSTAVAWYQQKPGKAPKLLIYSASFLYSGVPSRFSGSGSGTDFTLTISSLQPEDFATYYCQQSYTTPPTFGQGTKVEIKRTVAAPSVFIFPPDIQMTQSPSSLSASVGDRVTITCKASENVVSYVSWYQQKPGKAPKLLIYGASNRNTGVPSRFSGSGSGTDFTLTISSLQPEDFATYYCGQSYNYPYTFGQGTKLEIKRTVAAPSVFIFPPSDEQLKSGTASVVCLLNNFYPREAKVQWKVDNALQSGNSQESVTEQDSKDSTYSLSSTLTLSKADYEKHKVYACEVTHQGLSSPVTKSFNRGEC | 136 | 20.2
8 | DVD660 (bispecific antibody, human IgG1, kappa, DVD-Ig; HC linker short, LC linker short; vectors V1/V2) heavy: not shown light: DIQMTQSPSSLSASVGDRVTITCSASQDISNYLNWYQQKPGKAPKVLIYFTSSLHSGVPSRFSGSGSGTDFTLTISSLQPEDFATYYCQQYSTVPWTFGQGTKVEIKRTVAAPDIQMTQSPSSLSASVGDRVTITCKASENVVSYVSWYQQKPGKAPKLLIYGASNRNTGVPSRFSGSGSGTDFTLTISSLQPEDFATYYCGQSYNYPYTFGQGTKLEIKRTVAAPSVFIFPPSDEQLKSGTASVVCLLNNFYPREAKVQWKVDNALQSGNSQESVTEQDSKDSTYSLSSTLTLSKADYEKHKVYACEVTHQGLSSPVTKSFNRGEC | 1.51 | 449
9 | DVD642 (bispecific antibody, human IgG1, kappa, DVD-Ig; HC linker long, LC linker long; vectors V1/V2) heavy: not shown light: DIQMTQSPSSLSASVGDRVTITCSASQDISNYLNWYQQKPGKAPKVLIYFTSSLHSGVPSRFSGSGSGTDFTLTISSLQPEDFATYYCQQYSTVPWTFGQGTKVEIKRTVAAPSVFIFPPDIQMTQSPSSVSASVGDRVTITCRASQGISSWLAWYQQKPGKAPNLLIYEASSLQSGVPSRFGGSGSGTDFTLTISSLQPEDFATYYCQQANGFPWTFGQGTKVEIKRTVAAPSVFIFPPSDEQLKSGTASVVCLLNNFYPREAKVQWKVDNALQSGNSQESVTEQDSKDSTYSLSSTLTLSKADYEKHKVYACEVTHQGLSSPVTKSFNRGEC | 6.35 | 0.87
10 | DVD654 (bispecific antibody, human IgG1, kappa, DVD-Ig; HC linker short, LC linker long; vectors V1/V2) heavy: not shown light: DIQMTQSPSSLSASVGDRVTITCSASQDISNYLNWYQQKPGKAPKVLIYFTSSLHSGVPSRFSGSGSGTDFTLTISSLQPEDFATYYCQQYSTVPWTFGQGTKVEIKRTVAAPSVFIFPPDIQMTQSPSSVSASVGDRVTITCRASQGISSWLAWYQQKPGKAPNLLIYEASSLQSGVPSRFGGSGSGTDFTLTISSLQPEDFATYYCQQANGFPWTFGQGTKVEIKRTVAAPSVFIFPPSDEQLKSGTASVVCLLNNFYPREAKVQWKVDNALQSGNSQESVTEQDSKDSTYSLSSTLTLSKADYEKHKVYACEVTHQGLSSPVTKSFNRGEC | 3.71 | 0.91

Continued, values first:

Row | EC50 [1] [nM] | EC50 [2] [nM] | Binder
11 | 1.72 | 4.17 | DVD648 (bispecific antibody, human IgG1, kappa, DVD-Ig; HC linker long, LC linker short; vectors V1/V2) heavy: not shown light: DIQMTQSPSSLSASVGDRVTITCSASQDISNYLNWYQQKPGKAPKVLIYFTSSLHSGVPSRFSGSGSGTDFTLTISSLQPEDFATYYCQQYSTVPWTFGQGTKVEIKRTVAAPDIQMTQSPSSVSASVGDRVTITCRASQGISSWLAWYQQKPGKAPNLLIYEASSLQSGVPSRFGGSGSGTDFTLTISSLQPEDFATYYCQQANGFPWTFGQGTKVEIKRTVAAPSVFIFPPSDEQLKSGTASVVCLLNNFYPREAKVQWKVDNALQSGNSQESVTEQDSKDSTYSLSSTLTLSKADYEKHKVYACEVTHQGLSSPVTKSFNRGEC
12 | 70.2 | 214 | DVD662 (bispecific antibody, human IgG1, kappa, DVD-Ig; HC linker short, LC linker short; vectors V1/V2) heavy: not shown light: DIQMTQSPSSLSASVGDRVTITCRASQDVSTAVAWYQQKPGKAPKLLIYSASFLYSGVPSRFSGSGSGTDFTLTISSLQPEDFATYYCQQSYTTPPTFGQGTKVEIKRTVAAPDIQMTQSPSSLSASVGDRVTITCKASENVVSYVSWYQQKPGKAPKLLIYGASNRNTGVPSRFSGSGSGTDFTLTISSLQPEDFATYYCGQSYNYPYTFGQGTKLEIKRTVAAPSVFIFPPSDEQLKSGTASVVCLLNNFYPREAKVQWKVDNALQSGNSQESVTEQDSKDSTYSLSSTLTLSKADYEKHKVYACEVTHQGLSSPVTKSFNRGEC
13 | 5.31 | 0.29 | DVD644 (bispecific antibody, human IgG1, kappa, DVD-Ig; HC linker long, LC linker long; vectors V1/V2) heavy: not shown light: DIQMTQSPSSLSASVGDRVTITCRASQDVSTAVAWYQQKPGKAPKLLIYSASFLYSGVPSRFSGSGSGTDFTLTISSLQPEDFATYYCQQSYTTPPTFGQGTKVEIKRTVAAPSVFIFPPDIQMTQSPSSVSASVGDRVTITCRASQGISSWLAWYQQKPGKAPNLLIYEASSLQSGVPSRFGGSGSGTDFTLTISSLQPEDFATYYCQQANGFPWTFGQGTKVEIKRTVAAPSVFIFPPSDEQLKSGTASVVCLLNNFYPREAKVQWKVDNALQSGNSQESVTEQDSKDSTYSLSSTLTLSKADYEKHKVYACEVTHQGLSSPVTKSFNRGEC
14 | 7.87 | 1.27 | DVD656 (bispecific antibody, human IgG1, kappa, DVD-Ig; HC linker short, LC linker long; vectors V1/V2) heavy: not shown light: DIQMTQSPSSLSASVGDRVTITCRASQDVSTAVAWYQQKPGKAPKLLIYSASFLYSGVPSRFSGSGSGTDFTLTISSLQPEDFATYYCQQSYTTPPTFGQGTKVEIKRTVAAPSVFIFPPDIQMTQSPSSVSASVGDRVTITCRASQGISSWLAWYQQKPGKAPNLLIYEASSLQSGVPSRFGGSGSGTDFTLTISSLQPEDFATYYCQQANGFPWTFGQGTKVEIKRTVAAPSVFIFPPSDEQLKSGTASVVCLLNNFYPREAKVQWKVDNALQSGNSQESVTEQDSKDSTYSLSSTLTLSKADYEKHKVYACEVTHQGLSSPVTKSFNRGEC
15 | 2.67 | 4.63 | DVD650 (bispecific antibody, human IgG1, kappa, DVD-Ig; HC linker long, LC linker short; vectors V1/V2) heavy: not shown light: DIQMTQSPSSLSASVGDRVTITCRASQDVSTAVAWYQQKPGKAPKLLIYSASFLYSGVPSRFSGSGSGTDFTLTISSLQPEDFATYYCQQSYTTPPTFGQGTKVEIKRTVAAPDIQMTQSPSSVSASVGDRVTITCRASQGISSWLAWYQQKPGKAPNLLIYEASSLQSGVPSRFGGSGSGTDFTLTISSLQPEDFATYYCQQANGFPWTFGQGTKVEIKRTVAAPSVFIFPPSDEQLKSGTASVVCLLNNFYPREAKVQWKVDNALQSGNSQESVTEQDSKDSTYSLSSTLTLSKADYEKHKVYACEVTHQGLSSPVTKSFNRGEC
